Consider 2 molecules from patent publication US20220204610A1, “PROTEIN BINDERS FOR IRHOM2” (NEW YORK SOCIETY FOR THE RELIEF OF THE RUPTURED AND …, priority 2019, published 2022).

Assay [1] has as its system LPS-induced release of endogenous TNFα from human THP-1 macrophage cells. Description: ELISA-based TNFα release assay with purified antibody (Example 11). Format: cell-based. The note with it: Homo sapiens; positive control at 10 μM final; THP-1 cells; LPS 50 ng/ml, 2 hours. On the procedure:
In the following study, ELISA-based TNFα release assays were performed to verify the inhibitory effects of the purified antibody 4H8-E3 of the invention on LPS-induced release of endogenous TNFα from human THP-1 macrophage cells.
In brief, on day 1, Nunc black MaxiSorp® 96-well plates (Thermo Fisher Scientific, USA) were coated overnight with 100 μl per well of mouse anti-human TNFα capture antibody (provided as part of the DuoSet ELISA kit) at 4 μg/ml TBS at 4° C. On day 2, the capture antibody solution was removed and MaxiSorp® plates were blocked with 300 μl per well of TBS, 1% BSA at room temperature for 3 hours. […] Using an infinite M1000 PRO (Tecan Group, Switzerland) microplate reader, the fluorescence of each well was collected at an excitation wavelength of 435 nm and an emission wavelength of 555 nm.
For orientation: An ELISA detects its analyte on a solid surface through an enzyme-linked reagent.

Assay [2] has as its target T1, human iRhom2 (inactive rhomboid protein 2, isoform 1, NP_078875.4) (human, UniProt Q6PJF5 1-856).
T1 sequence: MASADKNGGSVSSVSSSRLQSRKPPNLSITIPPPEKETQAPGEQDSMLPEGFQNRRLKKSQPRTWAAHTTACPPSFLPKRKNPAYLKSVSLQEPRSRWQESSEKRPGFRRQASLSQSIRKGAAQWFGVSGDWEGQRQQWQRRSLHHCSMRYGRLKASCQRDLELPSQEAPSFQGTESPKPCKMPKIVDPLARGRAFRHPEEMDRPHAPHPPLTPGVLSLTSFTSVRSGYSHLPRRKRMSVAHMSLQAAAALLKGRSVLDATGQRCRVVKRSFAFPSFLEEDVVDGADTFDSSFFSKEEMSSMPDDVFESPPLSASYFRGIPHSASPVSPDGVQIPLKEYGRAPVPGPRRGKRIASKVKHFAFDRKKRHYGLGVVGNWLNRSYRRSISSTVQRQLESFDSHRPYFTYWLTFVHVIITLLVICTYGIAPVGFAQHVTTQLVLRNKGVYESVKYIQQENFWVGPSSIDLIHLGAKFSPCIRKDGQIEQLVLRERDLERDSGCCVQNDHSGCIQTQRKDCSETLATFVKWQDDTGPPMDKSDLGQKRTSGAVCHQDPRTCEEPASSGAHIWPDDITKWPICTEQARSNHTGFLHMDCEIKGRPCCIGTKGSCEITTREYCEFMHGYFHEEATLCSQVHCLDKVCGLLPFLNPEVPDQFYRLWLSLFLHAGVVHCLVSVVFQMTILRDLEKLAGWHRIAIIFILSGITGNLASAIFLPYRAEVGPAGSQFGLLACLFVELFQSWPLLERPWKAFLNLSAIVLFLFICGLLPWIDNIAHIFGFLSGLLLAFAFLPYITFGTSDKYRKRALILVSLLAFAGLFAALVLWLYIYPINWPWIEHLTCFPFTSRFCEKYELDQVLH
Description: cell-based or functional assay.

The target of assay [3] is T2, peptide 4b (human iRhom1 juxtamembrane domain of TMD1, AA428-461), biotinylated (human, biotin-PEG(11)-maleimide on the added C-terminal cysteine).
T2 peptide: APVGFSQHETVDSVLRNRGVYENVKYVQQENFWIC
Description: peptide binding ELISA, biotinylated peptide coated.

The target in assay [4] is T3, peptide 2b (human iRhom1 juxtamembrane domain of TMD1, AA428-449), biotinylated (human, biotin-PEG(11)-maleimide on the added C-terminal cysteine).
T3 peptide: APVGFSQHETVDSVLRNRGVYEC
Description: peptide binding ELISA, biotinylated peptide coated.

Assay [5] addresses T4, peptide 8 (human iRhom2 C-terminus, AA824-839), biotinylated (human).
T4 construct: also called immunization peptide 8
T4 peptide: YIYPINWPWIEHLT[Abu]FC([maleimide-PEG11′-Biotin])
Description: peptide binding ELISA, biotinylated peptide coated.

The target in assay [6] is T5, peptide 5 (human iRhom2 loop 1, AA474-498), biotinylated (human, X (position 4) = aminobutyrate in place of the internal cysteine; biotin-PEG(11)-maleimide on the added N-terminal cysteine).
T5 construct: also called immunization peptide 5
T5 peptide: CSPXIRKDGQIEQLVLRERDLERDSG
Description: peptide binding ELISA, biotinylated peptide coated.

Assay [7] addresses T6, peptide 10 (human iRhom2 C-terminus, AA824-856), biotinylated (human, oxidized to the cyclic disulfide; biotin-PEG(11)-maleimide on the added C-terminal cysteine).
T6 construct: also called immunization peptide 10
T6 peptide: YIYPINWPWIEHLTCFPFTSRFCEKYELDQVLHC
Description: peptide binding ELISA, biotinylated peptide coated.

Assay [8] deals with T7, peptide 9 (human iRhom2 C-terminus, AA819-839), biotinylated (human, X (position 20) = aminobutyrate in place of the internal cysteine; biotin-PEG(11)-maleimide on the added C-terminal cysteine).
T7 construct: also called immunization peptide 9
T7 peptide: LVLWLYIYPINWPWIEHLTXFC
Description: peptide binding ELISA, biotinylated peptide coated.

In assay [9] the target is T8, peptide 11 (human iRhom2 C-terminus, AA819-856), biotinylated (human, oxidized to the cyclic disulfide; biotin-PEG(11)-maleimide on the added C-terminal cysteine).
T8 construct: also called immunization peptide 11
T8 peptide: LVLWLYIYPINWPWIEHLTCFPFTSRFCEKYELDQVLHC
Description: peptide binding ELISA, biotinylated peptide coated.

Assay [10] deals with T9, peptide 6 (human iRhom2 loop 1, AA508-548), biotinylated (human, not fully specified; X (position 9) = aminobutyrate in place of the internal cysteine; biotin-PEG(11)-maleimide on the natural terminal cysteine).
T9 construct: also called immunization peptide 6
T9 peptide: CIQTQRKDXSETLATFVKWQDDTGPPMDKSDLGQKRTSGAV
Description: peptide binding ELISA, biotinylated peptide coated.

Assay [11] concerns the target T10, peptide 3b (human iRhom1 juxtamembrane domain of TMD1, AA433-461), biotinylated (human, biotin-PEG(11)-maleimide on the added C-terminal cysteine).
T10 peptide: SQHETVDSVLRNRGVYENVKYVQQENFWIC
Description: peptide binding ELISA, biotinylated peptide coated.

Assay [12] has as its target T11, peptide 7 (human iRhom2 loop 1, AA578-600), biotinylated (human, X (position 16) = aminobutyrate in place of the internal cysteine; biotin-PEG(11)-maleimide on the natural terminal cysteine).
T11 construct: also called immunization peptide 7
T11 peptide: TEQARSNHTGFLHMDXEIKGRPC
Description: peptide binding ELISA, biotinylated peptide coated.

Assay [13] concerns the target T12, peptide 1b (human iRhom1 juxtamembrane domain of TMD1, AA433-449), biotinylated (human).
T12 peptide: SQHETVDSVLRNRGVYEC([maleimide-PEG(11)-Biotin])
Description: peptide binding ELISA, biotinylated peptide coated.

Primed or numbered codes have the meaning given here. Where no end group is shown, it is not given here. Side-chain parts run from the residue outwards. [ ]: non-standard residue; d: D form. The star is where a group is joined. PEG(11) = undeca(ethylene glycol) spacer (11 ethylene glycol units) between biotin and maleimide; Biotin = O=C1N[C@H]2[C@H](CS[C@H]2CCCCC(=O)*)N1; PEG11′ = not defined here; Abu = CC[C@H](N)C(=O)O

A word on the inhibition: it is the relative decrease from the control value, in per cent. A higher inhibition goes with a response far below the control.

In [1], `CNC(=O)[C@H](Cc1ccccc1)NC(=O)[C@H](CC(C)C)[C@H](CSc1cccs1)C(=O)NO` [Batimastat, reference compound] returned an inhibition at 10 µM of 92.5%.

B1: antibody 4H8-E3 of the invention (antibody, V domains shown)
VH: EVQLQQSGPELVKPGASVKISCKASGYTFTDYYMNWVKQSHGKSLEWIGDINPNNGGTSYNQKFKGKATLTVDKSSNTAYMEFRSLTSEDSAVYYCARRGYYGVDYWGQGTTLTVSS
VL: NIVMTQSPKSMSMSVGERVTLNCKASENVGTYVSWYQQKPEQSPKLLIFGASNRYTGVPDRFIGSGFATDFTLTISSVQAEDLADYHCGQSYSYPYTFGGGTKLEIK
notes: Mouse monoclonal antibody purified from the supernatant of hybridoma sub-clone 4H8-E3; also called anti JMD1 antibody 4H8-E3; purified antibody 4H8-E3
Turning to B1, the “IC50 on LPS-induced release of endogenous TNFα from THP-1 cells” value in [2] came to 6.48 nM. Further, the binding result in assay [3], in assay [4], in [5], in assay [6], in assay [7] and in [8] was “no binding (tested: 3 µg/ml)” in each case. Also, the binding result in [9], in assay [10], in [11], in assay [12] and in [13] was “no binding (tested: 3 µg/ml)” in each case.
